{
  "source": "patent CN114480298A",
  "about": "(MEGEE TRANSF MEDICAL RESEARCH SUZHOU CO LTD, dated 2022)",
  "binders": {"B1": {"name": "抗TIGIT单克隆抗体MJ12-30 (antibody, mouse IgG1, kappa, V domains shown)", "VH": "EVKLEQSGGVLVQPGGSRKLSCAASGFTFHSFGMHWVRQAPEKGLEWVAYISSGGSTIFYADTVKGRFTISRDNPKNTLFLQMTSLRSEDTAMYYCAGSDHGNLGYWGQGTTLTVSS", "VL": "DIVLTQSPLSLSVSLGDQASISCRSSQSILHSGGNTYLDWFLQRPGQSPKLLIYKVSNRISGVPDRFSGSGAGTDFTLKISRVEAEDLGVYYCFQGNHVPPTFGGGTKLEIKR", "notes": "full chains used here; also called 鼠抗人TIGIT单克隆抗体杂交瘤细胞系MJ12-30 (CGMCC No.45102) 分泌的抗体"}},
  "key": {"TF-TIGIT融合蛋白 (原核表达)": {"molecular_target": "T1, TF-TIGIT融合蛋白 (原核表达) (human (TIGIT part))", "T1 construct": "also called TF-TIGIT蛋白; 原核表达的TF-TIGIT蛋白", "T1 chain": "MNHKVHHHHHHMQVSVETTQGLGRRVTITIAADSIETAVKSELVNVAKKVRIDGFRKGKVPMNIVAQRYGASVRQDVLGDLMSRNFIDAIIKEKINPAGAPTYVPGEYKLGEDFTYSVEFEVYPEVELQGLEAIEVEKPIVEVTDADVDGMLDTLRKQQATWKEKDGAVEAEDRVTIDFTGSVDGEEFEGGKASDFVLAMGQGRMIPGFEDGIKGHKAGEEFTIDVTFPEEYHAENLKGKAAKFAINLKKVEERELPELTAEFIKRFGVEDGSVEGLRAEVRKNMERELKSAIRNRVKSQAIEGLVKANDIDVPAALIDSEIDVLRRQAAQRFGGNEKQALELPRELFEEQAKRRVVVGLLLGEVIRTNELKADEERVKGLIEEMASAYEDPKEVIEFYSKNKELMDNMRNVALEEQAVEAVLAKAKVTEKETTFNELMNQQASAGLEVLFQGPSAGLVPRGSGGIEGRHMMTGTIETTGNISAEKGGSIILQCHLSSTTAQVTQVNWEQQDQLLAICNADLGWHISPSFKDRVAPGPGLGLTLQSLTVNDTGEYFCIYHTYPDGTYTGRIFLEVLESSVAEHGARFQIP", "assay": "Western blot, 0.2 μg antigen per lane, primary antibody 0.2 µg/mL"}, "[1]": {"molecular_target": "T2, 人TIGIT (人体组织细胞膜上表达的TIGIT蛋白) (human, UniProt Q495A1 22-244)", "T2 construct": "whole, on cells", "T2 sequence (looked up)": "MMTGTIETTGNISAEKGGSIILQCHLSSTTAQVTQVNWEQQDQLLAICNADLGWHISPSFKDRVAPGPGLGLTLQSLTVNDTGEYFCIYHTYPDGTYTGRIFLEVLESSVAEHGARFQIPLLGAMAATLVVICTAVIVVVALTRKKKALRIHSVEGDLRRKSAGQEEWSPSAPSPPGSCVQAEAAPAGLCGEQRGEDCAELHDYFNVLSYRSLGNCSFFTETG", "assay": "immunohistochemistry on FFPE human tissue, primary antibody 3.5 μg/mL"}},
  "data": [
    {"binder": "B1", "values": [
      {"measurement": "binding result", "setting": "TF-TIGIT融合蛋白 (原核表达)", "result": "binds"},
      {"measurement": "binding result", "setting": "[1]", "result": "binds"}
    ]}
  ]
}
